The target of this series is T1, alpha-fetoprotein (AFP) (UniProt P02771 19-609).
T1 sequence: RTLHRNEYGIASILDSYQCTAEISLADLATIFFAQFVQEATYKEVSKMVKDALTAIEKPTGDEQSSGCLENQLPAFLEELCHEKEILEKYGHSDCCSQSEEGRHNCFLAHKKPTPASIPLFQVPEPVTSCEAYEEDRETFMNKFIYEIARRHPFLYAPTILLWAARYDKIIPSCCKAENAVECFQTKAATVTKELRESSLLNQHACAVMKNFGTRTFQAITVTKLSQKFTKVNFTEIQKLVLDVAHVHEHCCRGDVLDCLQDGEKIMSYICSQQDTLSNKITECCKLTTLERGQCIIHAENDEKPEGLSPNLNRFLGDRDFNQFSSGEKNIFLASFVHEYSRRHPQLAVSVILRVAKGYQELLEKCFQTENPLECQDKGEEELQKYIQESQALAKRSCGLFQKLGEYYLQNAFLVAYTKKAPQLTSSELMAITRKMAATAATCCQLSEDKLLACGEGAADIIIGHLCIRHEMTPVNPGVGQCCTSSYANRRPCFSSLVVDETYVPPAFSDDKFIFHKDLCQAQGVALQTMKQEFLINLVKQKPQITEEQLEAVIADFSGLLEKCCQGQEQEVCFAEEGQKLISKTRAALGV
As to the kind of experiment: capillary electrophoresis (CE-LIF); CE-LIF: 10 uM FAM-aptamer with 100 ug/ml AFP, 25 C, PVA-coated capillary, -8 kV with 0.5 psi; CE buffer composition and pH not given in the material. The conditions noted are these: protein: commercial; label: 5' 6-FAM.

B1: AP250 (ssDNA)
DNA: GTGACGCTCCTAACGCTGACACAGTTGCTAAGAGCCGCCTCTGAACCTATCGAGGCCTGTCCGTCCGAACCAATC
For B1, the binding result is reported as “binds”.

B2: AP206 (ssDNA)
DNA: GTGACGCTCCTAACGCTGACTTTTAATTCTTGTTTATTGGTATATCCGCCTCTGACCTGTCCGTCCGAACCAATC
For B2, the binding result is reported as “binds”.

B3: AP273 (ssDNA)
DNA: GTGACGCTCCTAACGCTGACTCAGGTGCAGTTCTCGACTCGGTCTTGATGTGGGTCCTGTCCGTCCGAACCAATC
As to B3, the equilibrium dissociation constant (Kd) (usually the equilibrium constant for the complex coming apart) came to 500 nM.

B4: AP211 (ssDNA)
DNA: GTGACGCTCCTAACGCTGACTTTTTGGGAATGCGTATGTATGCTCGCCACGTACGCCTGTCCGTCCGAACCAATC
For the molecule B4, the binding result is recorded as “no binding”.

B5: AP244 (ssDNA)
DNA: GTGACGCTCCTAACGCTGACGGCCCGTCAATCCCCGCGTATCCATTGGTCCTTTACCTGTCCGTCCGAACCAATC
As to B5, the Kd stood at 4800 nM.
